According to US20060040855A1:

Columns and labels:
[1] = biological target: rat LH receptor (rat) (UniProt P16235)
[2] = biological target: rat LH receptor (rat) (UniProt P16235); remark: listed apart in the source
[3] = biological target: human FSH receptor (human) (UniProt P23945)
[4] = biological target: rat LH receptor (rat) (UniProt P16235); remark: listed apart in the source

Efficacy, cyclic AMP accumulation [1] | cyclic AMP accumulation [2] | efficacy in cyclic AMP assays [3] | efficacy in cyclic AMP assays [4] | Substance
42% | 40 % of hCG |  |  | dghCG (hCG lacking the α-subunit loop 2 oligosaccharide) (from UniProt P01215) (ligand)
24% |  |  |  | dgα37-β33 (dg-αY37C/hCGβI33C) (from UniProt P01215) (ligand)
 |  | < 4 % of hFSH | < 10 % of hCG | dgα37-β33CF (dg-αY37C/CF101-109βI33C) (from UniProt P01215) (ligand)
 |  | < 4 % of hFSH | < 10 % of hCG | dgα37-β33CFC (dg-αY37C/CFC101-114βI33C) (from UniProt P01215) (ligand)
